This data set is described as follows: soluble on expression in E. coli; label from the status in PepcDB or PDB records.
On to “MAGDPMIMVNLRIINFIGDIMKIRGICYRCGAEDELIDGLCPICYAQEHPLIEVPDRVEIEVCHMCGSYKRKIWQTPKSEEAFEILNEIAYYATKDAIKKKSVMVEVEIYPEVTQLPGGKRSKLIIPVHIVARGRLPGEKEDRTYEKDIEVHLRMVQCPRCSRFMSNYYEATLQVRAMNRYLTEEEREELDNFVREELAKRLKKDRMAFIAKFIPQKEGLDYQLGSVGAARNVAQRIKEKYGGKITETATLVGVDRDSGKELYRVTVSVRVPEYKVGDVVEYKDKYYLVTAITEDKVYMKSIDYKREKIGLAWHIAEKETKMAKKKDELDTATVIATTPTIMVMDDKSYEVYEFDNIGDVKIKEGDKVKIFKKEGVSYLVNKIEGKDKQLEHHHHHH”, for which the “soluble on expression in E. coli” value was “soluble”.

Take “MAGDPMLKGRQTWEFENRPVILSSAATAGPFEANGPLADDFDILFEDMWLGEDSFEKAQKVLIEEAAKTAIEKAGIQNDDIQFVFAGDLLNQMTSTSFACRSLCIPYFGLFGACSTSMEGLALAAFVINHSGANYVLTGSTSHNAAIEKQFRYPTEYGAQKPPTAQWTATAAGVGVVAKVGSGPVVTSATIGKVVDMGLSDPFNMGEAMAPAAADTIEMHFQERGVGPDYYDLIATGDLGKIGLPIVKEMLEQKGYSFNDGQLNDCGLMIYRDGQPVLAGGSGSGCSASVTYGHLLNRMKKGEINRMLIVATGALLSPMSYQQNETIPCIAHAVSIEAGGALALEHHHHHH”: the “soluble on expression in E. coli” value is recorded as “not soluble”.

For “MAGDPMNFVTTLTYLLPHRMLSSLARHVAYCQHPLIKQWLIDTVIAKFDVNLSEAAEPDAHAYPSFNAFFTRSLKTGIRLPDPNPDTLLMPADGRISQLGPIREGRIFQAKGQSFTATELLGDTAAAAAFTNGLFATVYLSPRDYHRVHMPCTGQLLKTVHVPGRLFSVGPDAVRQIPRLFARNERLACHFDTAFGPMVLVMVGALLVSGVETVWGGVEIPAYGDRITHKDYQGRNIAIERFAEMARFNYGSTVIVLLPPNVFTLAPHLTAESPVTLGQALAHRLSLNHSTQAPTQEKLEHHHHHH”, the “soluble on expression in E. coli” value is given as “not soluble”.

For the sequence “MAGDPMNVNVEDNAKVTLTSQGATKIYKTPSNHVEQYQTFNLKDNAYLEYVADPIIAYENAKFYQHNTFNLNNSSSLFYTDILTPGYSKTGEAFKYQYMHLINEIYIEDELVTYDNLLLNPNKQSINEIGYMEHYSHYGSAYFIHEDVNQKLIDSVYETISSYSNTFDCRVAISQLPTHGFAVRIFAYRTQIIEKILGIIQSYIAENIYDRKLDFLRKYLEHHHHHH”, the “soluble on expression in E. coli” value is on record as “not soluble”.

Turning to “MAGDPMRLEIAEKYMAEAYEYLKKGDTIQASGKAYKVAEEIVKAIKFLISKLIGQDVGVISPYRTQVRKLDQELANYKPYVEVNTVDAFQGREKDVIIFSVTATNGLRFVTNRRRLNVAFTRPRYKLIVLGNENSIMSCQMTICLEHHHHHH”, the “soluble on expression in E. coli” value is listed as “not soluble”.

As to “MAGDPMSTVAFHTLGCKVNHYETEAIWQLFKEANYERVDFEANADVFVINTCTVTNTGDKKSRQIIRRAIRQNPDAVICVTGCYAQTSSAEIMEIPGVDVVVGTQDRHKLLGYIDEFRKERQPINGVGNIMKNRKYEELDVPYFTDRTRASLKIQEGCNNFCTFCIIPWARGLMRSRDPEKVVEQATQLVNSGYKEIVLTGIHTGGYGQDLKDYNLAQLLRDLETINGLERIRISSIEASQLTDEVIDVLERSTKVVRHLHIPLQSGSDTVLKRMRRKYTMDRFSERLTKLHKALPDLAVTSDVIVGFPGETEAEFQETYDFIVKHKFSELHVFPYSPRIGTPAARMDDQIDEEIKNERVHKLITLSNQLGKLYASKFDQDVLEVIPEEQGDTEGTLVGYADNYMKVQFEGDESLIGQIVKVKITQANYPLNEGQAIKVVDFATNKSDREVLVLEHHHHHH”, the “soluble on expression in E. coli” value is “soluble”.

With “MAGDPMTIYEQHFIFSDRIVPIRVRENKYARRLILRIDARGREICVTTPPAINLYSIQGFIAKHQSWIEARLARVQIAHANSYLKEGTKIPLLGIPHTIQRKEGRGITEIVAGDVRQEPKIVVYGQLEYLPRRIADVLKKQAALIITPLVKCYARKVERKVKSICYKDTKSRWGSCSIHGNLSFSWRLVMAPQEVIEYVVAHEVAHLIEMNHGPKFWALCEKLCPKSEAYRTWLKENGHMLQAVNFHSYRLEILEHHHHHH”, the “soluble on expression in E. coli” value was “soluble”.

The values above are taken from the DeepSol protein solubility set.
